# Values quoted from earlier work, collected in article PMC5033469.
# Biological target: CD11c I domain (Homo sapiens) (UniProt P20702)
# Sequence (P20702 165-339): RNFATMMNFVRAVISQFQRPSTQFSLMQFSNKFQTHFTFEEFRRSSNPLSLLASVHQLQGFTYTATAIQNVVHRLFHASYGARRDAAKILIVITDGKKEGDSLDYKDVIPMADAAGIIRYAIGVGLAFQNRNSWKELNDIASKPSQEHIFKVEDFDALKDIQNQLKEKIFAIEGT
# fibrinogen, sequence (P02671 36-866): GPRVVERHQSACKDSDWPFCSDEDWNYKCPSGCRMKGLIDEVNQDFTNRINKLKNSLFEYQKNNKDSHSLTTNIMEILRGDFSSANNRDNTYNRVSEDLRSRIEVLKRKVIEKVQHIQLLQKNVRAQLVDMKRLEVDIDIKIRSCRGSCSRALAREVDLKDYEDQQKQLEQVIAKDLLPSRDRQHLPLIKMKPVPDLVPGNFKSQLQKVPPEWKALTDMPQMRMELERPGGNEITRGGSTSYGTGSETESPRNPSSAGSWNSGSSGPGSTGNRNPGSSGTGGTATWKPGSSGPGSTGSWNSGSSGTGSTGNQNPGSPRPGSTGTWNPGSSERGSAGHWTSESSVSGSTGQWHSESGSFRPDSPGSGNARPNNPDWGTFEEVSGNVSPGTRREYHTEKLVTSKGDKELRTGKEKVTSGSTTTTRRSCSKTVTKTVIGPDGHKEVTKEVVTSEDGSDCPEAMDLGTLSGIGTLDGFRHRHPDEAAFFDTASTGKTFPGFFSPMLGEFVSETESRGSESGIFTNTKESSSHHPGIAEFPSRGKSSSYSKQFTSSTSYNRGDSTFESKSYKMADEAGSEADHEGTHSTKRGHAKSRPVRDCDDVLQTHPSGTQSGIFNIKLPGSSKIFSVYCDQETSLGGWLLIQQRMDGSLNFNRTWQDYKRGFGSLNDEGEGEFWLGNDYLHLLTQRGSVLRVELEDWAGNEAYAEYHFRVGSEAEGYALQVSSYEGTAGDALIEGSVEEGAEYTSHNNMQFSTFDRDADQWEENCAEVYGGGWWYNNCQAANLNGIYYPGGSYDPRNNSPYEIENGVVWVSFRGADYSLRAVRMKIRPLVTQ
# fibrinogen, sequence (P02675 45-491, further chain): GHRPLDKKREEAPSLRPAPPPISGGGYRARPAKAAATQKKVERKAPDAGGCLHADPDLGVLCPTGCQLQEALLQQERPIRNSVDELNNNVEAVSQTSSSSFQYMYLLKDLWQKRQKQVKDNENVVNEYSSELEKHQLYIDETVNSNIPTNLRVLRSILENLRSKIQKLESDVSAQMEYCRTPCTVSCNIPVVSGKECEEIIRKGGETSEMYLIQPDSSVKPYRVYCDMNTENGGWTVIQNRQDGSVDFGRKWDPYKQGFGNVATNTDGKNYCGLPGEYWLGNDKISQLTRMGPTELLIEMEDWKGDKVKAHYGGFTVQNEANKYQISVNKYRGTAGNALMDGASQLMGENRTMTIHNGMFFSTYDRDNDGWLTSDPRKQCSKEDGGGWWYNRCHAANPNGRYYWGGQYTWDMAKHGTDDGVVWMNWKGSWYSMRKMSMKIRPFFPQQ
# fibrinogen, sequence (P02679 27-453, further chain): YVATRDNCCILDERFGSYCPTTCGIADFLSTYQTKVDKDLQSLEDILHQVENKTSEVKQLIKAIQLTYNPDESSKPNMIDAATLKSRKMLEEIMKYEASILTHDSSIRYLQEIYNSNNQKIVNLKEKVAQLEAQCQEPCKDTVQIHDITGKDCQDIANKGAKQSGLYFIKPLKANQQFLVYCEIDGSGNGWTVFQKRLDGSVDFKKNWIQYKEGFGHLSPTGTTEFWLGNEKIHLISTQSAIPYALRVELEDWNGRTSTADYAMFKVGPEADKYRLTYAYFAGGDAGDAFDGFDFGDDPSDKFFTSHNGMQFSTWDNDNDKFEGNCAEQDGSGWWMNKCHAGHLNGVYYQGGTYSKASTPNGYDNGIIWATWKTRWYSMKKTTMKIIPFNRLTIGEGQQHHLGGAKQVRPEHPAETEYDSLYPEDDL
substance,measurement,value
fibrinogen (from UniProt P02671),Kd,50 µM
